The supplement of paper PMC10126150
± gives the standard deviation of the averaged measurements.
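Further: ATP exposure 15 min at 22 °C before imaging.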

Each sequence was assayed on ATP (assay: switch fluorescence ratio, 500 uM ATP over buffer (Cy3 cluster intensity, sum of 5 cycles each) (fold (ratio)); higher = stronger signal-on switching upon ATP binding; sequences stand for … in TCGTCGGCAGCGTCAGATGTGTATAAGAGACAGTTTTTTTTTTTTTTTTTTTTTTTTT…TC). Details: aptamer strand: ATP DNA aptamer (quencher-CACCTGGGGGAGTATTGCGGAGGAAGG + anchor), 100 nM annealed; ATP concentration: 500 uM.
Method in brief: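 The quencher-labelled ATP aptamer, at 100 nM, was annealed to Cy3-labelled switching-strand clusters on a modified Illumina MiSeq flow-cell. The clusters were imaged in selection buffer, then after 15 min with 500 uM ATP at 22 °C, and this buffer/ATP cycle ran five times with NaOH stripping and re-annealing between runs. Per-cluster fluorescence ratios, summed target-cycle over summed buffer-cycle Cy3 intensity, were averaged per switch-domain sequence. Clusters outside 100-1000 RFU were excluded.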
TTAGGCAGTA gave a switch fluorescence ratio of 1.01 ± 0.067. With TTAGGCCGAG the switch fluorescence ratio was 1.04 ± 0.022. With TTAGGCGTGT the switch fluorescence ratio was 1.03 ± 0.031. With TTAGGCTGGG the switch fluorescence ratio was 1.02 ± 0.013. For TTAGGCTTGG, the switch fluorescence ratio was 1.06 ± 0.067. TTAGGGAGCG gave a switch fluorescence ratio of 0.996 ± 0.035. Sequence TTAGGGAGTC has a switch fluorescence ratio of 0.992 ± 0.037. TTAGGGCCGA gave a switch fluorescence ratio of 1 ± 0.031. TTAGGGCGGG gave a switch fluorescence ratio of 1.04 ± 0.039. TTAGGGCTCA showed a switch fluorescence ratio of 0.996 ± 0.027. TTAGGGGCAA was tested, and the switch fluorescence ratio was 1.04 ± 0.073. TTAGGGGCAC showed a switch fluorescence ratio of 0.993 ± 0.018. TTAGGGGGTC showed a switch fluorescence ratio of 0.998 ± 0.036. TTAGGGGTCT gave a switch fluorescence ratio of 1.03 ± 0.019. With TTAGGGTGAA the switch fluorescence ratio was 1.02 ± 0.032. TTAGGGTGCC was tested, and the switch fluorescence ratio was 1.02 ± 0.034. In the case of TTAGGGTTTG, the switch fluorescence ratio is reported as 0.995 ± 0.029. TTAGGTAACG was tested, and the switch fluorescence ratio was 0.977 ± 0.027. TTAGGTACGG gave a switch fluorescence ratio of 1.035 ± 0.01. With TTAGGTGAGT the switch fluorescence ratio was 1.21 ± 0.3. TTAGGTGGAA gave a switch fluorescence ratio of 0.976 ± 0.012. TTAGGTGTTT gave a switch fluorescence ratio of 1.54 ± 0.69. Work on TTAGGTTCTC yielded a switch fluorescence ratio of 0.991 ± 0.015. Sequence TTAGGTTGCT has a switch fluorescence ratio of 1.1 ± 0.14. TTAGGTTGGC was tested, and the switch fluorescence ratio was 1 ± 0.069. In the case of TTAGGTTGGG, the switch fluorescence ratio is reported as 1.02 ± 0.056. TTAGGTTGTA was tested, and the switch fluorescence ratio was 0.974 ± 0.025. For TTAGTAGAAC, the switch fluorescence ratio was 0.993 ± 0.013. For TTAGTATATT, the switch fluorescence ratio was 1.03 ± 0.0093. In the case of TTAGTCCACT, the switch fluorescence ratio is reported as 1.0047 ± 0.001. TTAGTCCTTG gave a switch fluorescence ratio of 0.9914 ± 0.0024. Sequence TTAGTGAGGT has a switch fluorescence ratio of 1 ± 0.027. For TTAGTGGATT, the switch fluorescence ratio was 0.9958 ± 0.0073. In the case of TTAGTGGGGG, the switch fluorescence ratio is reported as 0.998 ± 0.029. TTAGTGGTTG gave a switch fluorescence ratio of 0.992 ± 0.014. In the case of TTAGTGTCGA, the switch fluorescence ratio is reported as 1.02 ± 0.04. For TTAGTGTGCT, the switch fluorescence ratio was 1 ± 0.026. Work on TTAGTGTTGT yielded a switch fluorescence ratio of 0.969 ± 0.028. For TTAGTTAAT, the switch fluorescence ratio was 1.02 ± 0.023. TTAGTTAGGT gave a switch fluorescence ratio of 1.004 ± 0.0046. TTAGTTATTG gave a switch fluorescence ratio of 1 ± 0.087. For TTAGTTCGGG, the switch fluorescence ratio was 0.965 ± 0.023. In the case of TTAGTTGATA, the switch fluorescence ratio is reported as 1.01 ± 0.018. Work on TTAGTTGCTT yielded a switch fluorescence ratio of 1.01 ± 0.03. In the case of TTAGTTGGCA, the switch fluorescence ratio is reported as 0.981 ± 0.016. TTAGTTGGGT showed a switch fluorescence ratio of 1.002 ± 0.008. With TTAGTTTGTC the switch fluorescence ratio was 0.986 ± 0.063. In the case of TTAGTTTTAG, the switch fluorescence ratio is reported as 1.008 ± 0.0056. With TTAGTTTTGA the switch fluorescence ratio was 1 ± 0.031. TTAGTTTTTG showed a switch fluorescence ratio of 0.98 ± 0.017. Sequence TTATAAAGAG has a switch fluorescence ratio of 1.01 ± 0.029. TTATAACTCA showed a switch fluorescence ratio of 0.997 ± 0.034. In the case of TTATACCAAT, the switch fluorescence ratio is reported as 1.013 ± 0.0022. TTATACGGCG gave a switch fluorescence ratio of 1.06 ± 0.0059. TTATACGTTG gave a switch fluorescence ratio of 1.02 ± 0.019. TTATACTGAA gave a switch fluorescence ratio of 1.05 ± 0.021. TTATAGAGTT gave a switch fluorescence ratio of 0.9649 ± 0.0032. TTATAGCAGT gave a switch fluorescence ratio of 1.06 ± 0.04. TTATAGGGGA was tested, and the switch fluorescence ratio was 0.998 ± 0.082. Sequence TTATAGGGTA has a switch fluorescence ratio of 1 ± 0.017. In the case of TTATAGTATC, the switch fluorescence ratio is reported as 0.948 ± 0.02. With TTATAGTTTG the switch fluorescence ratio was 0.997 ± 0.03. Work on TTATATATAA yielded a switch fluorescence ratio of 1.01 ± 0.027. In the case of TTATATCGGT, the switch fluorescence ratio is reported as 0.971 ± 0.011. Sequence TTATATGATT has a switch fluorescence ratio of 0.997 ± 0.036. Work on TTATATTGCG yielded a switch fluorescence ratio of 0.9885 ± 0.0014. With TTATATTTGT the switch fluorescence ratio was 0.98 ± 0.02. TTATCAGGGG gave a switch fluorescence ratio of 1.08 ± 0.12. Sequence TTATCATTC has a switch fluorescence ratio of 1.01 ± 0.019. TTATCCAGCT showed a switch fluorescence ratio of 1.01 ± 0.012. TTATCCCGAA showed a switch fluorescence ratio of 0.991 ± 0.0085. TTATCCTGGT was tested, and the switch fluorescence ratio was 0.975 ± 0.011. TTATCCTTCA was tested, and the switch fluorescence ratio was 1.27 ± 0.36. TTATCGAGGG gave a switch fluorescence ratio of 0.989 ± 0.03. TTATCGATAG gave a switch fluorescence ratio of 0.985 ± 0.019. In the case of TTATCGATGG, the switch fluorescence ratio is reported as 0.987 ± 0.022. Work on TTATCGATTT yielded a switch fluorescence ratio of 0.995 ± 0.028. With TTATCGCGAC the switch fluorescence ratio was 1.67 ± 0.82. TTATCGGGAC showed a switch fluorescence ratio of 1 ± 0.049. With TTATCGGTGT the switch fluorescence ratio was 0.968 ± 0.038. In the case of TTATCGTGCG, the switch fluorescence ratio is reported as 0.9661 ± 0.0079. For TTATCGTTGG, the switch fluorescence ratio was 1 ± 0.031. In the case of TTATCTACGT, the switch fluorescence ratio is reported as 1.07 ± 0.035. With TTATCTCTGT the switch fluorescence ratio was 0.999 ± 0.022. TTATGAATTT gave a switch fluorescence ratio of 0.98 ± 0.026.
